In IntAct's records for PubMed 18776901:

B1: Non-catalytic caspase homolog csp-3 (Caenorhabditis elegans), G5ECW5 (parent)
chain: MFFGKLGGFAFFLQRAVRCDGFIDNFFDRIPKFFQFMKSKFPSHQTSSSQADLLVSFSTSPGFLSFKDETKDTWYIQELYRVIIENAKDTHLADLLTETNRRVVEKYEADKVVFVCKQAPEFWSRFTKQLFFMSRNDVF
partner: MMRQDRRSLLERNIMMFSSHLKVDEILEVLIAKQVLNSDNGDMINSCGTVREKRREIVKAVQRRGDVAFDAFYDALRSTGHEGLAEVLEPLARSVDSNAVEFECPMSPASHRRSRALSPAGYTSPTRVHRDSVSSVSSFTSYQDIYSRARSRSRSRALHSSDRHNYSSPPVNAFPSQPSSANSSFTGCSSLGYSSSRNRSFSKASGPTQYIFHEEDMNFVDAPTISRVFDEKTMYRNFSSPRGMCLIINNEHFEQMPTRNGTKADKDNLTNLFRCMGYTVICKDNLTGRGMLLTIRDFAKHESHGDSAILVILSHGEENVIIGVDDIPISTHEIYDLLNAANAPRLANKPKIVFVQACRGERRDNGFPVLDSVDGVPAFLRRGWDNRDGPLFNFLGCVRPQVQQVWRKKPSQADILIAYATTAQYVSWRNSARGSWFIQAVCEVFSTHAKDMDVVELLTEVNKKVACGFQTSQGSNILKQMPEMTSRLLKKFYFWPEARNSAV

Variants of: B1
Conditions: with ced3_caeel ced-3, P42573

| Variant | effect of a mutation on the interaction |
| --- | --- |
| MFFGKLGGFAFFLQRAVRCDGFIDNFFDRIPKFFQFMKSKFPSHQTSSSQADLLVSDSTSPGFLSFKDETKDTWYIQELYRVIIENAKDTHLADLLTETNRRVVEKYEADKVVFVCKQAPEFWSRFTKQLFFMSRNDVF [F57D] | decreasing interaction |

Variants of: B1
Conditions: with ced3_caeel ced-3, P42573
Remark: another data set of the same source

| Variant | effect of a mutation on the interaction |
| --- | --- |
| MFFGKLGGFAFFLQRAVRCDGFIDNFFDRIPKFFQFMKSKFPSHQTSSSQADLLVSDSTSPGFLSFKDETKDTWYIQELYRVIIENAKDTHLADLLTETNRRVVEKYEADKVVFVCKQAPEFWSRFTKQLFFMSRNDVF [F57D] | decreasing interaction strength |
